Reference: patent US20250354149, “L-RNA APTAMER-ANTISENSE OLIGONUCLEOTIDE CONJUGATES AND USES THEREOF” (CITY UNIVERSITY OF HONG KONG, published 2025)

Experiments:
[1] = molecular target: T1, RHAU53 peptide (DHX36 rG4-binding domain) (synthetic construct, UniProt Q9H2U1 SEQ:1-53); assay: EMSA; 100 nM RHAU53; binding to APP rG4 region inhibited by L-Apt.4-1c-ASO15nt(APP); data not shown; 37 C, KCl, MgCl2; details: protein: synthetic; tags: none, chemically synthesized by Synpeptide; label: 5' HEX; RNA G-quadruplex with 3' flank
T1 sequence: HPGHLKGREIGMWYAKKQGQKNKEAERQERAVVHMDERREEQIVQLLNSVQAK
Description: L-Apt.4-1c-ASO15nt_{(APP)} conjugate was serial diluted, and then the conjugate and HEX APP rG4 wt region were firstly refolded by heating at 95° C. for 5 min, 25° C. for 5 min, then 4° C. for at least 30 min separately in buffer containing 150 mM KCl, 1 mM MgCl₂, 25 mM Tris-HCl (pH 7.5) and 8% sucrose separately. 48 nM DHX36 protein (SEQ ID NO: 41) (or 100 nM RHAU53 peptide (SEQ ID NO: 42)), HEX_APP rG4 wt region (SEQ ID NO: 12) and L-Apt.4-1c-ASO15nt_{(APP)} were mixed and incubated for 30 min at 37° C. for competition binding. Then, the samples were loaded and resolved in 6% (37.5:1, acrylamide/bis-acrylamide) native gel for 70min at 35 mA at 4° C. in the running buffer containing 50 mM KOAc, 25 mM Tris-HCl (pH 7.5), 1 mM MgCl₂ (for DHX36) or running at 12.5 mA for 75 min in buffer containing 0.5×TBE and 40 mM KOAc (for RHAU53). At last, gels were scanned using Typhoon laser-scanner platform (Cytiva). Gel pictures were analyzed by image J software.

DHX36 = molecular target: T2, DHX36 (Homo sapiens, UniProt Q9H2U1 SEQ:1-1008); assay: EMSA; strong gel shift bands with DHX36; data not shown; exact label of the oligo not stated; details: label: 5' HEX; RNA G-quadruplex with 3' flank
T2 chain: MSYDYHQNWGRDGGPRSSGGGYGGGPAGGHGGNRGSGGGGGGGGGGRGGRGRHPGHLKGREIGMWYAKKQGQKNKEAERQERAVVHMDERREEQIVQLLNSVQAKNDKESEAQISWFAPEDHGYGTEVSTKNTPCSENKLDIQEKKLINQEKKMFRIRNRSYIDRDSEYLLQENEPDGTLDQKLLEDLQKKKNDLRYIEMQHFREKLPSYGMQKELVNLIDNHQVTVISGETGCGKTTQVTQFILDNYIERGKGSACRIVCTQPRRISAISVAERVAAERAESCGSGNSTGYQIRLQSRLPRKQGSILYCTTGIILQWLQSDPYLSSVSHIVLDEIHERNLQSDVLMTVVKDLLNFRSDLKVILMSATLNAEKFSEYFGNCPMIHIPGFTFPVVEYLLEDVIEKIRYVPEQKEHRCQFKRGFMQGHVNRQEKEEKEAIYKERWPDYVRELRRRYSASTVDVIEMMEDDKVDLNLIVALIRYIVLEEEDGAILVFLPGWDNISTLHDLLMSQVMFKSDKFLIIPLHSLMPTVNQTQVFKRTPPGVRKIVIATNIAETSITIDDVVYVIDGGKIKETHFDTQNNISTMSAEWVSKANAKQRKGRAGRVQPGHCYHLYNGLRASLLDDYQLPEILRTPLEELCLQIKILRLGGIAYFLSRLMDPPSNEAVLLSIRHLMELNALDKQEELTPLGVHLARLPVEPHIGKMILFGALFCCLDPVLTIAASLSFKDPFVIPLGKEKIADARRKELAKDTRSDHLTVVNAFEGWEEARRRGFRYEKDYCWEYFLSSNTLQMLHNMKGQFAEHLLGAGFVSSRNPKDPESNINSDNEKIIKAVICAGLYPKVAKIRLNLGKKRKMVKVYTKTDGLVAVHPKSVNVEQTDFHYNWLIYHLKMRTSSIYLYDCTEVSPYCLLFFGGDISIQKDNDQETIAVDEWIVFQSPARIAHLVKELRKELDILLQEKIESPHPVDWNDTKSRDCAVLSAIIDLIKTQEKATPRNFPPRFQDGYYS

Binder: GGGGCGGGUGGGGAGGGGUGCUCUGCUGGUCUUCAAUU (ssRNA) [APP rG4 wt region (HEX)]
- binding result [1]: binds
- binding result (DHX36): binds
